# Experimental data as given in PMC3124598.
# Target: TcpP-HSV (wild type, HSV epitope-tagged TcpP) (V. cholerae) (UniProt P29485)
# Assay: […], in 20 mM HEPES pH 7.0, 150 mM NaCl) […]
# Chain of UniProt P29485 (P29485 whole entry): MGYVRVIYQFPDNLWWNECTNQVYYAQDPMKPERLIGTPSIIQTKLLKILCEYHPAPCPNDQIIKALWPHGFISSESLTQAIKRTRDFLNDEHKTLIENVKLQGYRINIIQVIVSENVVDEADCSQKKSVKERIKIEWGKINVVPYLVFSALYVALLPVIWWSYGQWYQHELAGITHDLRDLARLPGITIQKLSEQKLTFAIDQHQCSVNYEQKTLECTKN
substance,measurement,value
ToxR-P101L (chromosomal toxR locus) (natural protein),percent of wild-type levels of interaction (% of wild-type),15
